Experiments:
His6-PfAtg3 = biological target: T1, His6-PfAtg3 (P. falciparum 3D7, UniProt C0H519 1-313); assay: SEC + other: dynamic light scattering
T1 sequence (looked up): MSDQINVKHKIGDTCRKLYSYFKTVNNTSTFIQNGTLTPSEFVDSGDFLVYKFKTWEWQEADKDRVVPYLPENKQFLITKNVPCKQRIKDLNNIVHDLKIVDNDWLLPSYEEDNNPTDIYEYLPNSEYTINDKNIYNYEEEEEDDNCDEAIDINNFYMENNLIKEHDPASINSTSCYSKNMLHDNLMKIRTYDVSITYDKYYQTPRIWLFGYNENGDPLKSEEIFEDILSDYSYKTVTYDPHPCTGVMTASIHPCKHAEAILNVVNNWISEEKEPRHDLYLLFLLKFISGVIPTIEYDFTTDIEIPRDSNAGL

His6-PfAtg8 L49A = His6-PfAtg8 L49A (P. falciparum 3D7, UniProt Q8IJK2 1-124, L49A); assay: pull-down
His6-PfAtg8 R27E = His6-PfAtg8 R27E (P. falciparum 3D7, UniProt Q8IJK2 1-124, R27E); assay: pull-down
[1] = biological target: His6-PfAtg8 E44A/K45S/K46A (P. falciparum 3D7, UniProt Q8IJK2 1-124, E44A | K45S | K46A); assay: pull-down
His6-PfAtg8 K47E = His6-PfAtg8 K47E (P. falciparum 3D7, UniProt Q8IJK2 1-124, K47E); assay: pull-down

| Binder | stoichiometry N (His6-PfAtg3) | binding result (His6-PfAtg8 L49A) | binding result (His6-PfAtg8 R27E) | binding result [1] | binding result (His6-PfAtg8 K47E) |
| --- | --- | --- | --- | --- | --- |
| His6-PfAtg8 wild type (natural protein, P. falciparum 3D7, UniProt Q8IJK2 1-124, looked up) MPSLKDEVSFENRVAETHKIRSKYPNRIPVVCERANRSNLPIIEKKKFLVPMNMLVGEFKFILHQHINQSAYGSNMKLFRERTIYLFVNNIVPKTGLLMQDLYEMYKDEDGYLYMEYSCESCLG | 1 |  |  |  |  |
| MBP-PfAtg3 (enzyme) MSDQINVKHKIGDTCRKLYSYFKTVNNTSTFIQNGTLTPSEFVDSGDFLVYKFKTWEWQEADKDRVVPYLPENKQFLITKNVPCKQRIKDLNNIVHDLKIVDNDWLLPSYEEDNNPTDIYEYLPNSEYTINDKNIYNYEEEEEDDNCDEAIDINNFYMENNLIKEHDPASINSTSCYSKNMLHDNLMKIRTYDVSITYDKYYQTPRIWLFGYNENGDPLKSEEIFEDILSDYSYKTVTYDPHPCTGVMTASIHPCKHAEAILNVVNNWISEEKEPRHDLYLLFLLKFISGVIPTIEYDFTTDIEIPRDSNAGL |  | binds | binds | binds | binds |

Reference: paper PMC3496014 (Journal of structural biology, 2012)
